B1: Variant 14019 (antibody, name in Kabat numbering, V domains shown)
VH: EVQLVESGGGLVQPGGSLRLSCAASGFTFQDYTMDWVRQAPGKGLEWVGDVNPNSGGSIYNQRFKGRFTFSVDRSWNTLYLQMNSLRAEDTAVYYCARNLGPSFYFDYWGQGTLVTVSS
VL: DIQMTQSPSSLSASVGDRVTITCKASQDVSIGVAWYQQKPGKAPKLLIYSASYRYTGVPSRFSGSGSGTDFTLTISSLQPEDFATYYCQQYYIYPYTFGQGTKVEIKR
notes: also called v14019
B2: Variant 14021 (antibody, name in Kabat numbering, V domains shown)
VH: B1 VH
VL: B1 VL with Y49W
notes: also called v14021
B3: Variant 14018 (antibody, name in Kabat numbering, V domains shown)
VH: B1 VH with Q30T
VL: B1 VL with Y49W
notes: also called v14018
B4: Variant 14020 (antibody, name in Kabat numbering, V domains shown)
VH: B1 VH with W76K, S103W
VL: B1 VL
notes: also called v14020
B5: Variant 14022 (antibody, name in Kabat numbering, V domains shown)
VH: B1 VH with W76K, S103W
VL: B1 VL with Y49W
notes: also called v14022

Changes are numbered by the printed parent chain.

For one assay, the target named is T1, HER2 expressed on the surface of cells (human, UniProt P04626 23-1255). Briefly: cell-based or functional assay.
For the molecule B1, the “growth inhibition IC50 (potency), NCI-N87 cells, 5 days” value (from here on “growth inhibition IC50 … 5 days”) is 4.1 nM; the “growth inhibition span (percentage of cells killed), NCI-N87 cells” value is 37%; the “increase in efficacy with respect to the WT, NCI-N87 cells” value (from here on “increase in efficacy”) came to 2.2 fold; the “increase in potency with respect to the WT, NCI-N87 cells” value (shortened to “increase in potency”) is 2.2 fold.

For the molecule B2, the “growth inhibition IC50 … 5 days” value turned out to be 2 nM; the “growth inhibition span (percentage of cells killed), NCI-N87 cells” value amounted to 44%; the “increase in efficacy” value came to 2.6 fold; the “increase in potency” value is 4.6 fold.

Regarding B3, the “growth inhibition IC50 … 5 days” value is 2.1 nM; the “growth inhibition span (percentage of cells killed), NCI-N87 cells” value came out at 32%; the “increase in efficacy” value was found to be 1.9 fold; the “increase in potency” value turned out to be 4.3 fold.

As to B4, the “growth inhibition IC50 … 5 days” value was found to be 3.5 nM; the “growth inhibition span (percentage of cells killed), NCI-N87 cells” value came to 55%; the “increase in efficacy” value stood at 3.2 fold; the “increase in potency” value was found to be 2.6 fold.

As to B5, the “growth inhibition IC50 … 5 days” value is 5.2 nM; the “growth inhibition span (percentage of cells killed), NCI-N87 cells” value came to 63%; the “increase in efficacy” value worked out at 3.7 fold; the “increase in potency” value was 1.8 fold.

Another assay has as its target T1, HER2 expressed on the surface of cells. Briefly: cell-based or functional assay. The source holds these as a separate data set.
B1: the “growth inhibition IC50 (potency), SKBR3 cells” value turned out to be 0.25 nM; the “growth inhibition span (percentage of cells killed), SKBR3 cells” value stood at 25%; the “growth inhibition span ratio to WT, SKBR3 cells” value was found to be 1.5 fold.

Turning to B2, the “growth inhibition IC50 (potency), SKBR3 cells” value amounted to 0.32 nM; the “growth inhibition span (percentage of cells killed), SKBR3 cells” value was found to be 31%; the “growth inhibition span ratio to WT, SKBR3 cells” value was 1.8 fold.

For B3, the “growth inhibition IC50 (potency), SKBR3 cells” value came out at 0.28 nM; the “growth inhibition span (percentage of cells killed), SKBR3 cells” value is 29%; the “growth inhibition span ratio to WT, SKBR3 cells” value was 1.7 fold.

For B4, the “growth inhibition IC50 (potency), SKBR3 cells” value is 0.17 nM; the “growth inhibition span (percentage of cells killed), SKBR3 cells” value is 26%; the “growth inhibition span ratio to WT, SKBR3 cells” value was 1.6 fold.

Regarding B5, the “growth inhibition IC50 (potency), SKBR3 cells” value turned out to be 0.41 nM; the “growth inhibition span (percentage of cells killed), SKBR3 cells” value stood at 26%; the “growth inhibition span ratio to WT, SKBR3 cells” value worked out at 1.6 fold.

A further assay shares this target. Briefly: flow cytometry on SKBR3 cells, n=1; B50 = concentration at 50% of Bmax.
Description: (§1) Binding of the test antigen-binding constructs to the surface of HER2+ cells was determined by flow cytometry. Cells were washed with PBS and resuspended in DMEM at 1×10⁵ cells/100 μl. 100 μl cell suspension was added into each microcentrifuge tube, followed by 10 μl/tube of the antigen-binding constructs. The tubes were incubated for 2 hr at 4° C. on a rotator. The microcentrifuge tubes were centrifuged for 2 min 2000 RPM at room temperature and the cell pellets washed with 500 μl media. Each cell pellet was resuspended in 100 μl of fluorochrome-labelled secondary antibody diluted in media to 2 μg/sample. The samples were then incubated for lhr at 4° C. on a rotator. After incubation, the cells were centrifuged for 2 min at 2000 rpm and washed in media. The cells were resuspended in 500 μl media, filtered, transferred to a tube containing 5 μl propidium iodide (PI) and analyzed on a BD LSR II flow cytometer according to the manufacturer's instructions. The B50 of the tested antigen-binding constructs was assessed by FACS with data analysis and curve fitting performed in GraphPad Prism. The experiment was carried out once (n=1) in SKBr3 cells, and twice (n=2) in SKOV3, MCF7, and BT-474 cells.
(§2) The experiment was performed once (n=1) in each cell line.
On to B1, for which the B50 is 14 nM.

The molecule B2 gave a B50 of 10 nM.

On to B3, for which the B50 turned out to be 8.4 nM.

In turn, B4 showed a B50 of 21 nM.

Regarding B5, the B50 turned out to be 9.8 nM.

Another assay shares this target. Briefly: flow cytometry on MCF7 cells (low HER2), n=1; B50 = concentration at 50% of Bmax.
Description: as §1, §2
B1: the B50 was 1.4 nM.

As to B2, the B50 was 1 nM.

B3 displayed a B50 of 0.9 nM.

For B4, the B50 was determined as 2.6 nM.

In turn, B5 came in with a B50 of 2 nM.

The target is the same in the next assay. Briefly: cell-based or functional assay. This is another data set of the same source.
Consider B1, for which the “growth inhibition span (percentage of cells killed), MDA-MB-175 cells” value amounted to 85%.

B2: the “growth inhibition span (percentage of cells killed), MDA-MB-175 cells” value worked out at 82%.

As to B3, the “growth inhibition span (percentage of cells killed), MDA-MB-175 cells” value turned out to be 85%.

Consider B4, for which the “growth inhibition span (percentage of cells killed), MDA-MB-175 cells” value was 80%.

Consider B5, for which the “growth inhibition span (percentage of cells killed), MDA-MB-175 cells” value was 83%.

A further assay shares this target. Briefly: flow cytometry on MCF7 cells (low HER2), n=1.
Description: as §1, §2
In the case of B1, the Bmax turned out to be 670 MFI.

For B2, the Bmax was 610 MFI.

In turn, B3 gave a Bmax of 680 MFI.

Molecule B4 gave a Bmax of 640 MFI.

The molecule B5 gave a Bmax of 630 MFI.

For another assay the target is unchanged. Briefly: flow cytometry on BT474 cells, n=1; B50 = concentration at 50% of Bmax.
Description: as §1, §2
Consider B1, for which the B50 was 2.9 nM.

B2 gave a B50 of 2.4 nM.

With B3, the B50 is 2.4 nM.

With B4, the B50 was 4.1 nM.

B5: the B50 came to 3 nM.

The next assay shares this target. Briefly: cell-based or functional assay. This is another data set of the same source.
With B1, the “growth inhibition IC50 (potency), BT474 cells” value was found to be 0.51 nM; the “growth inhibition span (percentage of cells killed), BT474 cells” value is 32%; the “growth inhibition span ratio to WT, BT474 cells” value came to 3 fold.

Turning to B2, the “growth inhibition IC50 (potency), BT474 cells” value worked out at 0.49 nM; the “growth inhibition span (percentage of cells killed), BT474 cells” value was 33%; the “growth inhibition span ratio to WT, BT474 cells” value is 3.1 fold.

With B3, the “growth inhibition IC50 (potency), BT474 cells” value is 0.66 nM; the “growth inhibition span (percentage of cells killed), BT474 cells” value amounted to 30%; the “growth inhibition span ratio to WT, BT474 cells” value was determined as 2.8 fold.

As for B4, the “growth inhibition IC50 (potency), BT474 cells” value is 0.55 nM; the “growth inhibition span (percentage of cells killed), BT474 cells” value was determined as 27%; the “growth inhibition span ratio to WT, BT474 cells” value was 2.6 fold.

B5: the “growth inhibition IC50 (potency), BT474 cells” value worked out at 0.54 nM; the “growth inhibition span (percentage of cells killed), BT474 cells” value was determined as 28%; the “growth inhibition span ratio to WT, BT474 cells” value is 2.6 fold.

The next assay has the same target. Briefly: flow cytometry on SKBR3 cells, n=1.
Description: as §1, §2
For the molecule B1, the Bmax is 29000 MFI.

Turning to B2, the Bmax is 31000 MFI.

In turn, B3 had a Bmax of 32000 MFI.

Turning to B4, the Bmax stood at 33000 MFI.

B5 gave a Bmax of 31000 MFI.

Another assay shares this target. Briefly: cell-based or functional assay. This is another data set of the same source.
As for B1, the “growth inhibition IC50 (potency), BT474 cells + EGF” value is 1.1 nM; the “growth inhibition span (percentage of cells killed), BT474 cells + EGF” value came to 33%; the “growth inhibition span ratio to WT, BT474 cells + EGF” value turned out to be 1.8 fold.

On to B2, for which the “growth inhibition IC50 (potency), BT474 cells + EGF” value came to 2 nM; the “growth inhibition span (percentage of cells killed), BT474 cells + EGF” value was 44%; the “growth inhibition span ratio to WT, BT474 cells + EGF” value was 2.4 fold.

As for B3, the “growth inhibition IC50 (potency), BT474 cells + EGF” value was 1.7 nM; the “growth inhibition span (percentage of cells killed), BT474 cells + EGF” value came out at 33%; the “growth inhibition span ratio to WT, BT474 cells + EGF” value was determined as 1.8 fold.

For the molecule B4, the “growth inhibition IC50 (potency), BT474 cells + EGF” value was 1.7 nM; the “growth inhibition span (percentage of cells killed), BT474 cells + EGF” value is 37%; the “growth inhibition span ratio to WT, BT474 cells + EGF” value stood at 2 fold.

With B5, the “growth inhibition IC50 (potency), BT474 cells + EGF” value is 2.8 nM; the “growth inhibition span (percentage of cells killed), BT474 cells + EGF” value was 35%; the “growth inhibition span ratio to WT, BT474 cells + EGF” value is 1.9 fold.

Another assay has the same target. Briefly: flow cytometry on BT474 cells, n=1.
Description: as §1, §2
Consider B1, for which the Bmax was 23000 MFI.

Regarding B2, the Bmax worked out at 23000 MFI.

With B3, the Bmax came out at 22000 MFI.

For the molecule B4, the Bmax stood at 22000 MFI.

With B5, the Bmax was 23000 MFI.

The record behind these values is patent publication US20180273635A1 (Zymeworks, published 2018).
